Experimental data from article PMC5446404 (2017).

T1: recombinant human fortilin (Strep-tag II), biotinylated (human, UniProt P13693 1-172, biotinylated (sites not given))
T1 chain: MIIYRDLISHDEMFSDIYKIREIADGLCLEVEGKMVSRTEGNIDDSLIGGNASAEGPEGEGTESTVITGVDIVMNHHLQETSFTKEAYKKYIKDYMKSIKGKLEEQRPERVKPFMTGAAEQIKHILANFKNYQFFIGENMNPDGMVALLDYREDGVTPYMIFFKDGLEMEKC

B1: GST-IRE1α-C (aa 468-977) (domain or fragment)
chain: MHQQQQLQHQQFQKELEKIQLLQQQQQQLPFHPPGDTAQDGELLDTSGPYSESSGTSSPSTSPRASNHSLCSGSSASKAGSSPSLEQDDGDEETSVVIVGKISFCPKDVLGHGAEGTIVYRGMFDNRDVAVKRILPECFSFADREVQLLRESDEHPNVIRYFCTEKDRQFQYIAIELCAATLQEYVEQKDFAHLGLEPITLLQQTTSGLAHLHSLNIVHRDLKPHNILISMPNAHGKIKAMISDFGLCKKLAVGRHSFSRRSGVPGTEGWIAPEMLSEDCKENPTYTVDIFSAGCVFYYVISEGSHPFGKSLQRQANILLGACSLDCLHPEKHEDVIARELIEKMIAMDPQKRPSAKHVLKHPFFWSLEKQLQFFQDVSDRIEKESLDGPIVKQLERGGRAVVKMDWRENITVPLQTDLRKFRTYKGGSVRDLLRAMRNKKHHYRELPAEVRETLGSLPDDFVCYFTSRFPHLLAHTYRAMELCSHERLFQPYYFHEPPEPQPPVTPDAL
B2: de-phosphorylated IRE1α-Myc-DDK (aa 1-977) (natural protein)
chain: IFGSTSTVTLPETLLFVSTLDGSLHAVSKRTGSIKWTLKEDPVLQVPTHVEEPAFLPDPNDGSLYTLGSKNNEGLTKLPFTIPELVQASPCRSSDGILYMGKKQDIWYVIDLLTGEKQQTLSSAFADSLCPSTSLLYLGRTEYTITMYDTKTRELRWNATYFDYAASLPEDDVDYKMSHFVSNGDGLVVTVDSESGDVLWIQNYASPVVAFYVWQREGLRKVMHINVAVETLRYLTFMSGEVGRITKWKYPFPKETEAKSKLTPTLYVGKYSTSLYASPSMVHEGVAVVPRGSTLPLLEGPQTDGVTIGDKGECVITPSTDVKFDPGLKSKNKLNYLRNYWLLIGHHETPLSASTKMLERFPNNLPKHRENVIPADSEKKSFEEVINLVDQTSENAPTTVSRDVEEKPAHAPARPEAPVDSMLKDMATIILSTFLLIGWVAFIITYPLSMHQQQQLQHQQFQKELEKIQLLQQQQQQLPFHPPGDTAQDGELLDTSGPYSESSGTSSPSTSPRASNHSLCSGSSASKAGSSPSLEQDDGDEETSVVIVGKISFCPKDVLGHGAEGTIVYRGMFDNRDVAVKRILPECFSFADREVQLLRESDEHPNVIRYFCTEKDRQFQYIAIELCAATLQEYVEQKDFAHLGLEPITLLQQTTSGLAHLHSLNIVHRDLKPHNILISMPNAHGKIKAMISDFGLCKKLAVGRHSFSRRSGVPGTEGWIAPEMLSEDCKENPTYTVDIFSAGCVFYYVISEGSHPFGKSLQRQANILLGACSLDCLHPEKHEDVIARELIEKMIAMDPQKRPSAKHVLKHPFFWSLEKQLQFFQDVSDRIEKESLDGPIVKQLERGGRAVVKMDWRENITVPLQTDLRKFRTYKGGSVRDLLRAMRNKKHHYRELPAEVRETLGSLPDDFVCYFTSRFPHLLAHTYRAMELCSHERLFQPYYFHEPPEPQPPVTPDAL
B3: recombinant human phospho-IRE1α-Myc-DDK (aa 1-977) (natural protein)
chain: B2 chain
modifications: phosphorylated (sites not stated for this preparation)
B4: GST-IRE1α-TM (aa 401-500) (domain or fragment)
chain: EEVINLVDQTSENAPTTVSRDVEEKPAHAPARPEAPVDSMLKDMATIILSTFLLIGWVAFIITYPLSMHQQQQLQHQQFQKELEKIQLLQQQQQQLPFHP

How the values were obtained:
[1] = target: T1, recombinant human fortilin (Strep-tag …); assay: BLI
[2] = target: T1, recombinant human fortilin (Strep-tag …); assay: BLI; dephosphorylated IRE1α
[3] = target: T1, recombinant human fortilin (Strep-tag …); assay: BLI; phosphorylated IRE1α

| Binder | Kd [1] | further results |
| --- | --- | --- |
| B1 | 0.67 µM | – |
| B2 | – | Kd [2]: 1.05 µM |
| B3 | – | Kd [3]: 0.32 µM |
| B4 | 4190 µM | – |
